In paper PMC4486171, “Ohr Protects Corynebacterium glutamicum against Organic Hydroperoxide Induced Oxidative Stress” (PLoS ONE, 2015) one finds Km, kcat and kcat/Km data, which are given here for one protein.

Substrate in this series: CC(C)(OO)c1ccccc1
As to the kind of experiment: purified protein. Conditions: 40 μM Lpd, 5 μM SucB, 0.2 mM NADPH, 0.1 μM Ohr, 50 mM sodium phosphate pH 7.4, 50 mM NaCl, 1 mM DTPA, 37°C. Type of series: biochemical, Corynebacterium glutamicum.

B1: Ohr (Corynebacterium glutamicum ATCC 13032) (protein)
chain: MAIESIAYTSEALSTGSGRLGHVRSTDGALEFEMTPPKALGGSGEGTNPEQLFAVGYAACFHSAMHSVARSRKITLEDTAVGARVSIGPNGAGGFEIAVELEVSIPQLPQAEAQELADAAHQVCPYSNATRGNISVTVSVIDEEA
notes: N-terminal His6 tag (pET-28a), about 17 kDa on gel, E. coli BL21(DE3)
Turning to B1, the Km was 17.48 ± 0.78 µM, the kcat came to 5.48 s⁻¹ and the kcat/Km is 314300 ± 1420 M⁻¹ s⁻¹.

For orientation: Km means the substrate concentration at which the rate is half of its maximum. In general, kcat refers to the maximal rate divided by the concentration of active sites. Broadly, the kcat/Km is the second-order rate constant that governs catalysis at low substrate concentration.
